Measurements from patent US9765127.

Molecular target: porcine pancreatic secretory PLA2 enzyme (sPLA2 1B) (porcine) (UniProt P00592)
Experiment: cell-based or functional assay

UniProt P00592, sequence (P00592 23-146): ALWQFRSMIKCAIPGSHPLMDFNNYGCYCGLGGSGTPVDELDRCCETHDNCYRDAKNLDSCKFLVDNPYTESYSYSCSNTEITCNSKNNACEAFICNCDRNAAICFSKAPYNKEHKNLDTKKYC

% inhibition of sPLA2-1B activity (fluorescent HPLC assay, cleavage of UNIBIPY substrate): 83%
Substance: recombinant human SCGB3A2 with N-terminus ATA (from UniProt Q96PL1 19-93)
